Assay results taken from publication PMC10567730, “PTPN23 ubiquitination by WDR4 suppresses EGFR and c-MET degradation to define a lung cancer therapeutic target” (Cell Death & Disease, 2023).

Biological target: T1, His-PTPN23 (UniProt Q9H3S7 1-1636)
T1 construct: PTPN23 cDNA amplified and subcloned to pVL1392 with a His-tag; also called baculovirally purified PTPN23; source: baculovirus, purified (Ni-Sepharose beads, eluted with imidazole)
Assay: pull-down; GST-WDR4 bound on glutathione beads incubated with purified PTPN23 or PTPN23 segments; binding buffer 50 mM Tris-HCl pH 7.5, 150 mM NaCl, 1% NP-40; bound proteins by Western blot
Conditions: both partners purified

T1 sequence (Q9H3S7 whole entry): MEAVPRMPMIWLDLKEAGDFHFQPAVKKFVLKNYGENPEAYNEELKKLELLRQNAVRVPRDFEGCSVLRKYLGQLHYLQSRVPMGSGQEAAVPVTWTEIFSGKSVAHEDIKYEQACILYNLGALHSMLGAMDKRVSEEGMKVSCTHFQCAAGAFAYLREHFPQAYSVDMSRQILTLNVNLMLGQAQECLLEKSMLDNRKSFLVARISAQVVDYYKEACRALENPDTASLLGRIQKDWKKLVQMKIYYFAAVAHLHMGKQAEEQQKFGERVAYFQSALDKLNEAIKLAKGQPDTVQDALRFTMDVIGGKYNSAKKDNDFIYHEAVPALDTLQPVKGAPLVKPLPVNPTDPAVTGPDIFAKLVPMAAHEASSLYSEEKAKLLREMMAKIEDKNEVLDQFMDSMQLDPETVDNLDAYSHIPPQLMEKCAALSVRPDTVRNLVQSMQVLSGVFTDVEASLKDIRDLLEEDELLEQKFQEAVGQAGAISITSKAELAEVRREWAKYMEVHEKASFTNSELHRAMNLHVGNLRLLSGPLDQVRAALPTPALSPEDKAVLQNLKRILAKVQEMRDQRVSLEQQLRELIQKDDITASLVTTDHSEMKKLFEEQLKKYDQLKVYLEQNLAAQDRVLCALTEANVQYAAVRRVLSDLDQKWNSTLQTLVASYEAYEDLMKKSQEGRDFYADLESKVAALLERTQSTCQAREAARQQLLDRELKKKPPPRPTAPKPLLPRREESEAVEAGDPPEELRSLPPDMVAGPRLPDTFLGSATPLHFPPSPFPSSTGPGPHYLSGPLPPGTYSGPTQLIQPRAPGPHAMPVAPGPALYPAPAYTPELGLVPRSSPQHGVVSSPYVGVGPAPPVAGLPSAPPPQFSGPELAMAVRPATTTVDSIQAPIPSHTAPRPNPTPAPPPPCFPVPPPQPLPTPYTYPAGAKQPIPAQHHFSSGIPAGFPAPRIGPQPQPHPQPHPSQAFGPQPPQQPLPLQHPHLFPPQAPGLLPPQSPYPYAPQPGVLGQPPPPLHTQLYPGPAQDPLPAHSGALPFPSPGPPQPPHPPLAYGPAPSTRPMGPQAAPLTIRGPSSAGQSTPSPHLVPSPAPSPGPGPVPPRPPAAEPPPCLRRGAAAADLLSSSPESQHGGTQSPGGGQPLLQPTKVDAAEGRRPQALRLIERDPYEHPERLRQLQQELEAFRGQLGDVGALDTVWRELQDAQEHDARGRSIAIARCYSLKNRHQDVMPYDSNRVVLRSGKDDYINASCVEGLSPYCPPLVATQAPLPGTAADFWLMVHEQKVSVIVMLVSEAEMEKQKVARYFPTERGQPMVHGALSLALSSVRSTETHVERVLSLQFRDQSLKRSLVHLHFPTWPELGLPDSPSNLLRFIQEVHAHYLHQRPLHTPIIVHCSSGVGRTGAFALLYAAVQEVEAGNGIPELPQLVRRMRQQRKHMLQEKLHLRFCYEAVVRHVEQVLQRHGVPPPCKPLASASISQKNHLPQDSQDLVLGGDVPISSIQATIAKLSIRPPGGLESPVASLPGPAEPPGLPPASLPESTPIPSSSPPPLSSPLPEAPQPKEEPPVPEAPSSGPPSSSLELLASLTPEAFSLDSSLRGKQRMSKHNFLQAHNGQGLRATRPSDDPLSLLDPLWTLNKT

binding result: binds
B1: GST-WDR4 (natural protein, UniProt P57081 1-412, looked up)
chain: MAGSVGLALCGQTLVVRGGSRFLATSIASSDDDSLFIYDCSAAEKKSQENKGEDAPLDQGSGAILASTFSKSGSYFALTDDSKRLILFRTKPWQCLSVRTVARRCTALTFIASEEKVLVADKSGDVYSFSVLEPHGCGRLELGHLSMLLDVAVSPDDRFILTADRDEKIRVSWAAAPHSIESFCLGHTEFVSRISVVPTQPGLLLSSSGDGTLRLWEYRSGRQLHCCHLASLQELVDPQAPQKFAASRIAFWCQENCVALLCDGTPVVYIFQLDARRQQLVYRQQLAFQHQVWDVAFEETQGLWVLQDCQEAPLVLYRPVGDQWQSVPESTVLKKVSGVLRGNWAMLEGSAGADASFSSLYKATFDNVTSYLKKKEERLQQQLEKKQRRRSPPPGPDGHAKKMRPGEATLSC
notes: WDR4 cDNA amplified by PCR and cloned to pGEX-4T-1; pGEX-4T-1 would place GST at the N-terminus (surmised from the vector); also called bacterially purified GST-WDR4
